Assay results taken from patent US20150031864A1.

Biological target: human growth hormone receptor on IM-9 cells (human) (UniProt P10912)
Assay: cell-based or functional assay

Sequence of UniProt P10912 (P10912 19-638): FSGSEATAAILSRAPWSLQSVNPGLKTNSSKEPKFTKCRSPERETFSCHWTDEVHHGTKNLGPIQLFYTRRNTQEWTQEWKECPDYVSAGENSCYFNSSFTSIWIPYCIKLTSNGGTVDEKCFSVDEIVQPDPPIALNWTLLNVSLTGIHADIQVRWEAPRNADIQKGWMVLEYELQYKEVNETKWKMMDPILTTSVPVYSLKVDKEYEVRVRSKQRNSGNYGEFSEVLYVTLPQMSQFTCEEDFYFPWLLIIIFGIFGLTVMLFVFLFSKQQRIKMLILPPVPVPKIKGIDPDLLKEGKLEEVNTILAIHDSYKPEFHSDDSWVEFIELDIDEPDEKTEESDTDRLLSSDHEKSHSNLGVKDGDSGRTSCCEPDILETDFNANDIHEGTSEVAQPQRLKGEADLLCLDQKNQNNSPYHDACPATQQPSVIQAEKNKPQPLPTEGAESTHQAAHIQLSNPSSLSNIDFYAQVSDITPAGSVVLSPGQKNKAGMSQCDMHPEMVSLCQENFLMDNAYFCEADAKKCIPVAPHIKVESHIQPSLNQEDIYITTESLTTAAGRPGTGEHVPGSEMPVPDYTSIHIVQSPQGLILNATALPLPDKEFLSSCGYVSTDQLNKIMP

EC50 (nM) of STAT5 phosphorylation in IM-9 cells | Substance
1.3 nM | N-6His A155pAF hGH (from UniProt P01241 27-217) (ligand)
0.9 nM | N-6His E88pAF hGH (from UniProt P01241 27-217) (ligand)
0.8 nM | N-6His F92pAF hGH (from UniProt P01241 27-217) (ligand)
3.3 nM | N-6His F139pAF hGH (from UniProt P01241 27-217) (ligand)
0.8 nM | N-6His G131pAF hGH (from UniProt P01241 27-217) (ligand)
1.4 nM | N-6His G136pAF hGH (from UniProt P01241 27-217) (ligand)
2.7 nM | N-6His K140pAF hGH (from UniProt P01241 27-217) (ligand)
8.5 nM | N-6His N99pAF hGH (from UniProt P01241 27-217) (ligand)
1 nM | N-6His P133pAF hGH (from UniProt P01241 27-217) (ligand)
2 nM | N-6His Q91pAF hGH (from UniProt P01241 27-217) (ligand)
0.9 nM | N-6His R134pAF hGH (from UniProt P01241 27-217) (ligand)
16.7 nM | N-6His S95pAF hGH (from UniProt P01241 27-217) (ligand)
0.9 nM | N-6His T135pAF hGH (from UniProt P01241 27-217) (ligand)
130000 nM | N-6His Y103pAF hGH (from UniProt P01241 27-217) (ligand)
1 nM | N-6His Y111pAF hGH (from UniProt P01241 27-217) (ligand)
0.8 nM | N-6His Y143pAF hGH (from UniProt P01241 27-217) (ligand)
> 200000 nM | rat GH WT (from UniProt P01244 27-216) (ligand)
